± gives the uncertainty stated by the source.
Assay: protein stability index of a GFP-peptide fusion (yeast GPS) (PSI 1-4); higher = more stable; sorted into four equal gates, so the index is relative within each strain
Summary of the method: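 Plasmids in a pooled yeast library fused tiled 17-residue yeast protein peptides downstream of GFP and also expressed Cherry. Mid-log cultures grown without leucine were sorted into four equal gates by GFP/Cherry fluorescence ratio. Each gate's plasmids were PCR-amplified and Illumina-sequenced, and reads were matched to strains by barcodes. The protein stability index is derived by multiplying each gate's read frequency by its gate number and summing the results.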

Sequence	protein stability index (doa10∆)	protein stability index (pdr5∆)	protein stability index (san1∆)	protein stability index (ubr1∆)
SPRNTYQCAMGKQAIGA [RET1]	1.94 ± 0.14	2.57 ± 0.14	2.83 ± 0.15	
KSDSQYRFYEYIYSQET [MED1]	2.81 ± 0.068	2.44 ± 0.061	2.74 ± 0.12	2.58 ± 0.07
VRNACKRLIAHDWLNAL [YCG1]	2.74 ± 0.081	2.97 ± 0.1	2.83 ± 0.075	3.19 ± 0.064
LTVSIKIALMNIPKPLN [RGR1]	1.19 ± 0.044	1.43 ± 0.057	1.54 ± 0.059	1.66 ± 0.032
LESWWLVLGEVSKKELY [BRR2]	1.68 ± 0.16	1.39 ± 0.14	1.11 ± 0.17	
DCNSALDQLLVLEKKTR [RPN5]	2.31 ± 0.068	2.31 ± 0.1	2.22 ± 0.058	2.44 ± 0.083
SELNEGNLSKREIQIDA [SRB8]	2.69 ± 0.062	2.88 ± 0.073	2.98 ± 0.069	2.12 ± 0.063
ILDTSQSESRQKRQLHD [SNU114]	3.23 ± 0.11	3.12 ± 0.084	1.72 ± 0.24	3.01 ± 0.048
NAEATKEEFSSAENRDE [CSE2]	3.14 ± 0.082	3.25 ± 0.086	3.35 ± 0.059	3.28 ± 0.069
NAASGSNSNVTNPSSIF [YOR098C/NUP1]	2.83 ± 0.049	2.74 ± 0.047	2.3 ± 0.049	2.73 ± 0.049
ATNRVDVLDPALLRSGR [RPT5]	3.13 ± 0.12	2.84 ± 0.11	3.04 ± 0.085	2.94 ± 0.075
NTFNYDVKISNDFFDNG [RPN4]	1.94 ± 0.08	2.3 ± 0.07	2.52 ± 0.091	2.48 ± 0.072
LLVDQKQLNSLRRSGQI [SMD1]	2.57 ± 0.047	2.79 ± 0.054	2.96 ± 0.061	2.72 ± 0.051
DGFKIYDNEKTAELIKE [PUP2]	3.29 ± 0.1	3.32 ± 0.15	3.15 ± 0.061	3.18 ± 0.13
DIINAVNEIMYKCTAAM [MTW1]	2.73 ± 0.089	2.77 ± 0.1	2.84 ± 0.11	2.33 ± 0.072
YKVEHPFFARFKLRIQT [RPB11]	2 ± 0.097	1.28 ± 0.057	1.37 ± 0.11	1.31 ± 0.16
NRSAKNSKNDSANVELF [YCS4]	3.09 ± 0.093	3.29 ± 0.11	2.94 ± 0.12	3.39 ± 0.072
VMKDIYKVENVTLYWNN [ESC2]	1.42 ± 0.088	1.62 ± 0.08	1.47 ± 0.11	1.73 ± 0.084
SETDLNDIPLGSGQPDN [SRB8]	3.09 ± 0.11	3.12 ± 0.069	3.06 ± 0.07	2.87 ± 0.056
NHNGSALLIEVFTALLR [ITC1]	1.68 ± 0.074	1.38 ± 0.055	1.47 ± 0.094	1.35 ± 0.053
PVLSTIAFLVGLVNPKT [SWI3]	2.98 ± 0.085	2.52 ± 0.058	2.33 ± 0.066	2.86 ± 0.042
LDTQLITLLPSSLKESS [SNF12]	2.89 ± 0.24			
HRLSILSHYAKIRPWRT [RPO31]	2.81 ± 0.068	2.77 ± 0.066	2.85 ± 0.087	2.84 ± 0.052
KRVTKVKRLLFTIRGFK [MTW1]	2.34 ± 0.057	2.52 ± 0.043	2.14 ± 0.057	2.54 ± 0.042
EEYVINLLKVSVDICNN [ECM29]	2.15 ± 0.064	2.58 ± 0.063	2.7 ± 0.048	2.65 ± 0.053
PEILRFKVYEPLLLVGL [RPS16A]	2.01 ± 0.12	2.31 ± 0.098	2.1 ± 0.18	2.65 ± 0.068
TNWDDHAIIIFGYPETI [YMR153W/NUP53]	2.45 ± 0.062	2.63 ± 0.048	2.3 ± 0.077	2.71 ± 0.038

Sequence	protein stability index (doa10∆)	protein stability index (pdr5∆)	protein stability index (san1∆)	protein stability index (ubr1∆)
RLISSKMPGGFTITVAR [FAS2]	1.65 ± 0.038	2 ± 0.063	1.52 ± 0.073	1.92 ± 0.044
LGQYVQAHTLYNSVRPF [PRE10]	2.74 ± 0.1	2.87 ± 0.099	2.78 ± 0.11	2.65 ± 0.053
TSTGIIRCHREDCDLVI [POP5]	2.67 ± 0.071	2.96 ± 0.077	2.71 ± 0.075	2.56 ± 0.066
IKKVICGAWEPAITIEK [SIR3]	2.15 ± 0.094	2.45 ± 0.087	2.47 ± 0.1	2.58 ± 0.084
HASENISLSFSRPASYG [SIR4]	2.53 ± 0.064	2.53 ± 0.044	2.74 ± 0.049	3.19 ± 0.045
NSNQQQNPKLFQTIFSK [SIN4]	1.98 ± 0.093	2.19 ± 0.069	3.11 ± 0.1	2.42 ± 0.082
YERRFGPYFVGPVVAGI [PUP3]	3.25 ± 0.22	2.81 ± 0.18		3.11 ± 0.16
VGHLSILPQQSKLKLKN [ECM29]	1.91 ± 0.16	2.31 ± 0.1	1.88 ± 0.13	2.5 ± 0.15
NYYSNKSNSTGNISSST [REC8]	2.79 ± 0.1	3.02 ± 0.099	2.85 ± 0.059	3.09 ± 0.064
RLGEMERDCVIAYGASQ [RET1]	3.24 ± 0.095	3.28 ± 0.086	2.55 ± 0.13	3.22 ± 0.062
KLKDSKKLFQKKENLTR [YML103C/NUP188]	2.57 ± 0.12	3.3 ± 0.1	2.97 ± 0.11	3.25 ± 0.1
SAEYLQMSLEANVVDIT [YJR042W/NUP85]	1.8 ± 0.064	2.19 ± 0.065	2.05 ± 0.14	2.38 ± 0.058
GSLARAGKVKSQTPKVE [RPS30A]	2.71 ± 0.06	2.7 ± 0.069	2.69 ± 0.058	2.57 ± 0.05
GKKKSATAVAHVKAGKG [RPS16A]	2.86 ± 0.094	2.69 ± 0.073	2.49 ± 0.11	2.53 ± 0.11
SFIISSLDTLELESITE [NUT1]	1.74 ± 0.075	1.64 ± 0.042	1.78 ± 0.083	1.78 ± 0.04
QNEMIDAIAVTKGHGFE [RPL3]	3.08 ± 0.11	3.21 ± 0.1	3.35 ± 0.1	3.34 ± 0.076
PNELSQILTVDPKTSLR [RPC82]	2.2 ± 0.069	1.91 ± 0.059	2.33 ± 0.067	2.45 ± 0.053
RDLSEASVYPEYALPKT [RPS26A]	3.11 ± 0.078	3.01 ± 0.067	3.16 ± 0.045	3.09 ± 0.034
LPKYQTIQYDPPETKLP [SNF5]	3.03 ± 0.052	2.96 ± 0.046	2.92 ± 0.04	3.01 ± 0.039
SKLPDPERWLPLRDRST [SRP72]	2.09 ± 0.067	2.91 ± 0.068	2.55 ± 0.077	2.46 ± 0.058
SVSLLNSDIANLRTQVT [SMC1]	3.04 ± 0.09	3.08 ± 0.064	3.13 ± 0.096	2.56 ± 0.11
TAASEARKHKLKTLVQG [RPS27A]	2.1 ± 0.24	2.75 ± 0.22		3.04 ± 0.18
GSAATSGFEFSKEDTLR [RPN1]	2.61 ± 0.15	3.14 ± 0.16	2.72 ± 0.15	3.08 ± 0.13
LKTDGVRAVSITSFGFG [FAS2]	1.44 ± 0.067	2.15 ± 0.099	1.5 ± 0.11	1.41 ± 0.05
IPKPRTAGKTSVKSART [SNF2]	3.38 ± 0.1	3.26 ± 0.069	2.89 ± 0.065	3.09 ± 0.048
LYNFLHKYVLTLQLYMV [RGR1]	2.04 ± 0.058	1.43 ± 0.042	1.78 ± 0.13	1.51 ± 0.039

From the supplement of paper PMC9732359
